Legend:
[1] = target: T1, HLA-A*02:01 class I complex (conditional p*HLA*02:01, biotinylated heavy chain with beta2-microglobulin) (human, biotinylated heavy chain); assay: UV peptide exchange, HLA class I ELISA, % of Pos peptide;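 on Average %: Streptavidin-captured HLA complexes after exchange detected via HRP anti-human B2M antibody, absorbance read, colour scales with intact complex, normalized to exchange control peptide as 100%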;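 on Exch I (%): Streptavidin-captured HLA complexes after exchange detected via HRP anti-human B2M antibody, absorbance read, colour scales with intact complex, normalized to exchange control peptide as 100%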;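 on Exch II (%): Streptavidin-captured HLA complexes after exchange detected via HRP anti-human B2M antibody, absorbance read, colour scales with intact complex, normalized to exchange control peptide as 100%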
T1 construct: UV-labile peptide p* is cleaved and exchanged for the test peptide; also called HLA 2.1
Text: (§1) The HLA class I ELISA is an enzyme immunoassay based on the detection of beta2-microglobulin (B2M) of (peptide-stabilized) HLA class I complexes. To this end streptavidin is bound onto polystyrene microtiter wells. After washing and blocking, HLA complex present in exchange reaction mixtures or ELISA controls is captured by the streptavidin on the microtiter plate via its biotinylated heavy chain. Non-bound material is removed by washing. Subsequently, horseradish peroxidase (HRP)-conjugated antibody to human B2M is added. […] In the latter case B2M is removed during the washing step. After removal of non-bound HRP conjugate by washing, a substrate solution is added to the wells. A colored product is formed in proportion to the amount of intact HLA complex present in the samples. After the reaction has been terminated by the addition of a stop solution, absorbance is measured in a microtiter plate reader. The absorbance is normalized to the absorbance of an exchange control peptide (represents 100%). Also, suboptimal HLA binding of peptides with a moderate to low affinity for HLA class I molecules can be detected by this ELISA technique
(§2) Coating wells of two NUNC MaxiSorp™ 96-well ELISA plates: only the contents of one coating buffer capsule were dissolved in 100 mL of distilled water (0.05 M carbonate-bicarbonate buffer, pH 9.6 at 25° C.). 46 μL of Streptavidin stock solution were added to 23 mL coating buffer. 100 μL of the Streptavidin stock solution were added to all wells. Each microtiter plate was covered with an adhesive seal and incubated overnight at room temperature (18-25° C.).

[2] = target: T1, HLA-A*02:01 class I complex …; assay: UV peptide exchange, HLA class I ELISA; high end of the group, member by Table 4
Text: as §1, §2

[3] = target: T1, HLA-A*02:01 class I complex …; assay: UV peptide exchange, HLA class I ELISA, % of Pos peptide; remark: listed apart in the source
[4] = target: T1, HLA-A*02:01 class I complex …; assay: UV peptide exchange, HLA class I ELISA; low end of the group, member by Table 4
Text: as §1, §2

[5] = target: T1, HLA-A*02:01 class I complex …; assay: UV peptide exchange, HLA class I ELISA, % of Pos peptide; remark: listed apart in the source
Text: as §1, §2

Binder | Average % [1] | Exch I (%) [1] | Exch II (%) [1] | average relative binding (%) [2] | Mutant Binding [3] | average relative binding (%) [4] | average relative binding (%) [5]
GLKDLLNPI (also called M080) [PIK3CA.E453K mutant peptide GLKDLLNPI] | 79.4% | 73.8% | 84.9% | 70 to 79% | – | – | –
VVPCEPPEV (also called M230) [TP53.Y220C mutant peptide VVPCEPPEV] | 33.5% | 29.4% | 37.5% | – | 33.5% | – | –
VLPCEPPEV (also called M231) [TP53_Y220C2 mimic peptide VLPCEPPEV] | 70% | 66.3% | 73.7% | – | – | 70 to 79% | –
VMPCEPPEV (also called M232) [TP53_Y220C3 mimic peptide VMPCEPPEV] | 60.9% | 62.9% | 58.9% | – | – | 61 to 69% | –
SMTCTYFPV (also called M213) [TP53_S127F7 mimic peptide SMTCTYFPV] | 88.4% | 83.4% | 93.3% | 80 to 88% | – | – | –
SMTCTYFPI (also called M215) [TP53_S127F12 mimic peptide SMTCTYFPI] | 27.5% | 32.2% | 22.7% | 18 to 28% | – | – | –
RLIHRDLAA (also called M240) [ERBB2.V842I mutant peptide RLIHRDLAA] | 7.2% | 6.8% | 7.7% | – | – | – | < 15%
CYLYYYSYLL (also called M101) [PTEN R173C2 mimic peptide CYLYYYSYLL] | 18.3% | 16.1% | 20.6% | – | – | 18 to 28% | –
CYVYYYSYLL (also called M100) [PTEN.R173C mutant peptide CYVYYYSYLL] | 38.4% | 38.2% | 38.5% | 33 to 38% | – | – | –
YQGSYGFLL (also called M200) [TP53.R110L mutant peptide YQGSYGFLL] | 11.9% | 14.3% | 9.6% | – | – | – | < 15%
YQGSYGFLV (also called M202) [TP53_R110L4 mimic peptide YQGSYGFLV] | 49.6% | 53.6% | 45.6% | – | – | 50 to 58% | –
YQGSYGFLI (also called M201) [TP53_R110L3 mimic peptide YQGSYGFLI] | 8.9% | 7.1% | 10.8% | – | – | – | < 15%
LLVVGAAGV (also called M051) [KRAS_G12A2 mimic peptide LLVVGAAGV] | 33.3% | 34.1% | 32.5% | – | – | 33 to 38% | –
LMVVGACGV (also called M062) [KRAS_G12C3 mimic peptide LMVVGACGV] | 48.7% | 47.1% | 50.4% | 41 to 49% | – | – | –
ILNREIDFA (also called M090) [PIK3CA.G118D mutant peptide ILNREIDFA] | 50.4% | 53.1% | 47.8% | – | 50.4% | – | –
ALNNMFCQV (also called M161) [TP53_K132N5 mimic peptide ALNNMFCQV] | 69.3% | 69.7% | 68.8% | 61 to 69% | – | – | –
ALNNMFCQL (also called M160) [TP53.K132N mutant peptide ALNNMFCQL] | 41.3% | 39.6% | 43.1% | – | 41.3% | 41 to 49% | –
NMDEYVHNL (also called M113) [SF3B1_R625H9 mimic peptide NMDEYVHNL] | 58.1% | 62% | 54.3% | 50 to 58% | – | – | –
YLDCGIHSG (also called M020) [CTNNB1.S33C mutant peptide YLDCGIHSG] | 33.9% | 34.8% | 33% | – | 34.8% | – | –
YLDCGIHSV (also called M022) [CTNNB1_S33C5 mimic peptide YLDCGIHSV] | 102% | 100% | 104% | – | – | 102 to 113% | > 100%
KLYPVQLWV (also called M131) [TP53_C141Y2 mimic peptide KLYPVQLWV] | 81.9% | 84.1% | 79.8% | – | – | 80 to 88% | –
KMYPVQLWL (also called M133) [TP53_C141Y8 mimic peptide KMYPVQLWL] | 112% | 122% | 103% | 102 to 113% | – | – | > 100%
KTYPVQLWV (also called M130) [TP53.C141Y mutant peptide KTYPVQLWV] | 68.9% | 66.6% | 71.2% | – | 68.9% | – | –
LLGRNSFEM (also called M220) [TP53.V272M mutant peptide LLGRNSFEM] | 50.9% | 58.8% | 42.9% | – | 50.9% | – | –
YMDSGIHFV (also called M033) [CTNNB1_S37F6 mimic peptide YMDSGIHFV] | 99.8% | 104% | 95.5% | 90 to 100% | – | – | –
YLDSGIHFG (also called M030) [CTNNB1.S37F mutant peptide YLDSGIHFG] | 53.4% | 53.7% | 53.2% | – | 53.7% | – | –
VLSDAISAV (also called M121; SOX17_S40312) [SOX17_S403I2 mimic peptide VLSDAISAV] | 90.1% | 89.3% | 90.9% | – | – | 90 to 100% | –
SVTCTYFPA (also called M210) [TP53.S127F mutant peptide SVTCTYFPA] | 8.6% | 7.7% | 9.4% | – | – | – | < 15%
QLWVDSTPL (also called M180) [TP53.P152L mutant peptide QLWVDSTPL] | 86.2% | 84.3% | 88.1% | – | 86.2% | – | –

From patent US20220194999A1 (Janssen / Centocor, published 2022)
